# B1: Azoarcus group I ribozyme (parent)
# chain: GUGCCUUGCGCCGGGAAACCACGCAAGGGAUGGUGUCAAAUUCGGCGAAACCUAAGCGCCCGCCCGGGCGUAUGGCAACGCCGAGCCAAGCUUCGGCGCCUGCGCCGAUGAAGGUGUAGAGACUAGACGGCACCCACCUAAGGCAAACGCUAUGGUGAAGGCAUAGUCCAGGGAGUGGCGAAAGUCACACAAACCGG
# Variants of: B1
# Assay: reverse-splicing fitness (ratio to wild type); higher = more active; in vitro selection; Mg2+ level not given
# Outline: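 An in vitro group I ribozyme library with randomized positions was T7-transcribed and gel-purified. In triplicate, 10 pmol RNA in EPPS pH 7.5 was reacted with 50 pmoles of a 30-nt RNA substrate for 1 h at 37 °C across several added MgCl2 levels (1–48 mM), then stopped with EDTA. Products were reverse transcribed from a substrate-complementary primer, PCR-amplified and sequenced (HiSeq 4000). Fitness is a variant's read proportion after selection over that before, normalised to wild type.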
row,Variant,reverse-splicing fitness
1,C82A A120C A145U C150G U176C,0.0141
2,C82A A120C A145U C150G U176G,0.00376
3,C82A A120C A145U C150U,0.086
4,C82A A120C A145U C150U C169A,0.00998
5,C82A A120C A145U C150U C169A U176A,0.0178
6,C82A A120C A145U C150U C169A U176C,0.0134
7,C82A A120C A145U C150U C169A U176G,0.00539
8,C82A A120C A145U C150U C169G,0.0103
9,C82A A120C A145U C150U C169G U176A,0.0129
10,C82A A120C A145U C150U C169G U176C,0.0198
11,C82A A120C A145U C150U C169G U176G,0.00507
12,C82A A120C A145U C150U C169U,0.0159
13,C82A A120C A145U C150U C169U U176A,0.0145
14,C82A A120C A145U C150U C169U U176C,0.0137
15,C82A A120C A145U C150U C169U U176G,0.00474
16,C82A A120C A145U C150U U176A,0.0269
17,C82A A120C A145U C150U U176C,0.0422
18,C82A A120C A145U C150U U176G,0.00864
19,C82A A120C A145U C169A,0.00925
20,C82A A120C A145U C169A U176A,0.0129
21,C82A A120C A145U C169A U176C,0.0124
22,C82A A120C A145U C169A U176G,0.00493
23,C82A A120C A145U C169G,0.00932
24,C82A A120C A145U C169G U176A,0.0152

row,Variant,reverse-splicing fitness
1,C82A A120C A145U C169G U176C,0.0191
2,C82A A120C A145U C169G U176G,0.00482
3,C82A A120C A145U C169U,0.0199
4,C82A A120C A145U C169U U176A,0.0169
5,C82A A120C A145U C169U U176C,0.0114
6,C82A A120C A145U C169U U176G,0.0041
7,C82A A120C A145U U176A,0.0383
8,C82A A120C A145U U176C,0.0639
9,C82A A120C A145U U176G,0.00885
10,C82A A120C C150A,0.0224
11,C82A A120C C150A C169A,0.0115
12,C82A A120C C150A C169A U176A,0.0213
13,C82A A120C C150A C169A U176C,0.0227
14,C82A A120C C150A C169A U176G,0.00801
15,C82A A120C C150A C169G,0.0106
16,C82A A120C C150A C169G U176A,0.021
17,C82A A120C C150A C169G U176C,0.0258
18,C82A A120C C150A C169G U176G,0.00627
19,C82A A120C C150A C169U,0.0147
20,C82A A120C C150A C169U U176A,0.0176
21,C82A A120C C150A C169U U176C,0.0137
22,C82A A120C C150A C169U U176G,0.00644
23,C82A A120C C150A U176A,0.0151
24,C82A A120C C150A U176C,0.0248

row,Variant,reverse-splicing fitness
1,C82A A120C C150A U176G,0.00826
2,C82A A120C C150G,0.0157
3,C82A A120C C150G C169A,0.0112
4,C82A A120C C150G C169A U176A,0.0126
5,C82A A120C C150G C169A U176C,0.0129
6,C82A A120C C150G C169A U176G,0.00817
7,C82A A120C C150G C169G,0.00866
8,C82A A120C C150G C169G U176A,0.00779
9,C82A A120C C150G C169G U176C,0.00601
10,C82A A120C C150G C169G U176G,0.00605
11,C82A A120C C150G C169U,0.0104
12,C82A A120C C150G C169U U176A,0.00617
13,C82A A120C C150G C169U U176C,0.0113
14,C82A A120C C150G C169U U176G,0.00629
15,C82A A120C C150G U176A,0.00712
16,C82A A120C C150G U176C,0.0106
17,C82A A120C C150G U176G,0.00347
18,C82A A120C C150U,0.0789
19,C82A A120C C150U C169A,0.0105
20,C82A A120C C150U C169A U176A,0.0201
21,C82A A120C C150U C169A U176C,0.0165
22,C82A A120C C150U C169A U176G,0.00673
23,C82A A120C C150U C169G,0.00925
24,C82A A120C C150U C169G U176A,0.0152

row,Variant,reverse-splicing fitness
1,C82A A120C C150U C169G U176C,0.0201
2,C82A A120C C150U C169G U176G,0.00493
3,C82A A120C C150U C169U,0.0173
4,C82A A120C C150U C169U U176A,0.0167
5,C82A A120C C150U C169U U176C,0.0147
6,C82A A120C C150U C169U U176G,0.00589
7,C82A A120C C150U U176A,0.0246
8,C82A A120C C150U U176C,0.0394
9,C82A A120C C150U U176G,0.0111
10,C82A A120C C169A,0.0104
11,C82A A120C C169A U176A,0.0198
12,C82A A120C C169A U176C,0.0229
13,C82A A120C C169A U176G,0.00458
14,C82A A120C C169G,0.00961
15,C82A A120C C169G U176A,0.0193
16,C82A A120C C169G U176C,0.0259
17,C82A A120C C169G U176G,0.00508
18,C82A A120C C169U,0.0186
19,C82A A120C C169U U176A,0.0172
20,C82A A120C C169U U176C,0.0151
21,C82A A120C C169U U176G,0.00416
22,C82A A120C U176A,0.04
23,C82A A120C U176C,0.056
24,C82A A120C U176G,0.00961

row,Variant,reverse-splicing fitness
1,C82A A120G,0.0258
2,C82A A120G A145C,0.0202
3,C82A A120G A145C C150A,0.00678
4,C82A A120G A145C C150A C169A,0.00694
5,C82A A120G A145C C150A C169A U176A,0.0126
6,C82A A120G A145C C150A C169A U176C,0.00527
7,C82A A120G A145C C150A C169A U176G,0.00399
8,C82A A120G A145C C150A C169G,0.00852
9,C82A A120G A145C C150A C169G U176A,0.0238
10,C82A A120G A145C C150A C169G U176C,0.0138
11,C82A A120G A145C C150A C169G U176G,0.00464
12,C82A A120G A145C C150A C169U,0.00736
13,C82A A120G A145C C150A C169U U176A,0.0192
14,C82A A120G A145C C150A C169U U176C,0.0107
15,C82A A120G A145C C150A C169U U176G,0.00478
16,C82A A120G A145C C150A U176A,0.00995
17,C82A A120G A145C C150A U176C,0.00806
18,C82A A120G A145C C150A U176G,0.00435
19,C82A A120G A145C C150G,0.0075
20,C82A A120G A145C C150G C169A,0.00915
21,C82A A120G A145C C150G C169A U176A,0.00899
22,C82A A120G A145C C150G C169A U176C,0.00611
23,C82A A120G A145C C150G C169A U176G,0.00399
24,C82A A120G A145C C150G C169G,0.00899

row,Variant,reverse-splicing fitness
1,C82A A120G A145C C150G C169G U176A,0.00918
2,C82A A120G A145C C150G C169G U176C,0.00676
3,C82A A120G A145C C150G C169G U176G,0.00341
4,C82A A120G A145C C150G C169U,0.00806
5,C82A A120G A145C C150G C169U U176A,0.0158
6,C82A A120G A145C C150G C169U U176C,0.0123
7,C82A A120G A145C C150G C169U U176G,0.00438
8,C82A A120G A145C C150G U176A,0.00476
9,C82A A120G A145C C150G U176C,0.00686
10,C82A A120G A145C C150G U176G,0.00304
11,C82A A120G A145C C150U,0.0107
12,C82A A120G A145C C150U C169A,0.00915
13,C82A A120G A145C C150U C169A U176A,0.0121
14,C82A A120G A145C C150U C169A U176C,0.00527
15,C82A A120G A145C C150U C169A U176G,0.00425
16,C82A A120G A145C C150U C169G,0.00984
17,C82A A120G A145C C150U C169G U176A,0.0208
18,C82A A120G A145C C150U C169G U176C,0.0116
19,C82A A120G A145C C150U C169G U176G,0.00468
20,C82A A120G A145C C150U C169U,0.00958
21,C82A A120G A145C C150U C169U U176A,0.0197
22,C82A A120G A145C C150U C169U U176C,0.0106
23,C82A A120G A145C C150U C169U U176G,0.00407
24,C82A A120G A145C C150U U176A,0.0106

row,Variant,reverse-splicing fitness
1,C82A A120G A145C C150U U176C,0.0102
2,C82A A120G A145C C150U U176G,0.0042
3,C82A A120G A145C C169A,0.0124
4,C82A A120G A145C C169A U176A,0.00955
5,C82A A120G A145C C169A U176C,0.00741
6,C82A A120G A145C C169A U176G,0.00327
7,C82A A120G A145C C169G,0.0188
8,C82A A120G A145C C169G U176A,0.0259
9,C82A A120G A145C C169G U176C,0.0162
10,C82A A120G A145C C169G U176G,0.00403
11,C82A A120G A145C C169U,0.0141
12,C82A A120G A145C C169U U176A,0.0217
13,C82A A120G A145C C169U U176C,0.0129
14,C82A A120G A145C C169U U176G,0.00381
15,C82A A120G A145C U176A,0.011
16,C82A A120G A145C U176C,0.0111
17,C82A A120G A145C U176G,0.00396
18,C82A A120G A145G,0.0225
19,C82A A120G A145G C150A,0.0101
20,C82A A120G A145G C150A C169A,0.0112
21,C82A A120G A145G C150A C169A U176A,0.0183
22,C82A A120G A145G C150A C169A U176C,0.023
23,C82A A120G A145G C150A C169A U176G,0.00558

# Source: the RNAGym collection of RNA variant scans (doi:10.1093/molbev/msab373)
